Experimental findings from US20250357519 are described below.

Data set [1] concerns the target partially acetylated equine heart cytochrome c (Sigma C4186), P00004.
In data set [2] the target is native equine heart cytochrome c (Sigma C2506), P00004.
Chain of native equine heart cytochrome c (Sigma C2506), P00004 (P00004 2-105): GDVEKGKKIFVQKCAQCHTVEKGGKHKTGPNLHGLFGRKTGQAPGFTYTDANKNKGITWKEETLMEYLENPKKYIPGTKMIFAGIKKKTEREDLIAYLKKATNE

Chain of partially acetylated equine heart cytochrome c (Sigma C4186), P00004 (P00004 2-105): as above

B1: Strep-tag II-tagged DvH-FDH2 (recombinant formate dehydrogenase 2 from Desulfovibrio vulgaris Hildenborough, heterodimer of large and small subunit) (protein)
chain 1: MRMPRRTFIKLASASAGALAFAGLGQSLAPTVARAAELKIAKAKVTPSVCCFCAVGCGLLVYTDTQTGRSINIEGDPDHPTNEGTLCPKGASIWQTTERSKRVTKVLYRAPGAAAWEEKSWDWALPRIARKIKETRDATFELTNDKGQTVNRTRGIASVGSAAVDNEEGWLMQAMMRALGLVYIESHARIUHSSTVGALAESYGRGAMTNHWIDLKNSDVILIMGSNAAENHPISFKWVTRAQERGATLIHVDPRFTRTSAKADIHAHIRSGTDIAFFGGLIRYIMENDLFFRQYVVDYTNASYIVGADYGFADGLFTGFDAEKGTYNTKKWAFAADENGMTLKDPTLNDPRCVFQLMKAHYARYDRKTVSDVTGISEEQLATLWSTFASTGKPDRAGTILYAMGQCQHTVGVQNIRALSMIQLLLGNIGIAGGGVNALRGESNVQGTTDISLLCDNLSGYLPTPKASWATFDDYVKGTTPVDKDPKSANWWSNRGKYLASYMKSVYPTASHQDGYLWHPKVDDGKITDYSWLQIFERMSKGGFKGAFVWGQNPCAGGANAGKNRKAMETLDWMVVVNLFENESSLFWKGPGVDPAKVKTEVFFLPACMSVEKGGSIANSGRWLQWREPGPKPMGDSRSDGDIVLDLYDEIRKLYREEKGAFPEPVLALDTDYRTDGKYDHHKVAKTLNGKFLTDVTIGDKTYKAGQQVPGFAMLQADGSTTSGCWIFTGCYTDAGNMMARRDRTQTPEQAAIGLFPNWSYAWPANRRILYNRAAVDMTGKPFDPKRAVIAWNGEKWVGDVPDGGWKPGEKLPFIMIREGRGQLFGPGRVDGPFPEHYEPFESPLESHPFSKQRVNPTALAFSHEPKAVRDKRYPFICTTYRVTEQWQSGTMTRNTGWLKEMQPEGFCEISRELAKELGIANGDAVVLESLRGKVQVVAIVTPRLKPFKVMGEVMHEVGIPWQFGWGQHVGKGDSANLLSPSVGDPNTGIPETKVFMVNLRKA
chain 2: MRPLGSLPQGMRRVSRRHIREAYMNGKTFFIDQTRCTACRGCQAACKQWKKFGSIETRNTGSYQNPPDLGPSTFKLVRFNEVEVDGKLKWLFFPEQCRHCLEPPCKMVADALIPGAIVQDAETGAVLYTEKTKGLDYMEVRSACPYDIPRQDPATGLLTKCNMCIDRVQNGMLPACVKTCPTGTMHFGDRADMLELAQKRLGEVKKRSPAALLADSDLVRVLYLCELAPANYHSHMVAEADTSRIGPFSRRALLRLRPFA
In the case of B1, the “reduction of acetylated equine cytochrome c during DvH-FDH2 catalysis (absorbance at 550 nm)” value in data set [1] is on record as “DvH-FDH2 does not reduce acetylated cytochrome c”. Moreover, in data set [2], the “reduction of native equine cytochrome c in air at doubled formate concentration (electronic spectra)” value is “Doubling the formate concentration resulted in near-stoichiometric reduction in air”; the “reduction of native equine cytochrome c in the presence of formate (absorbance at 550 nm), anaerobic” value is “stoichiometric reduction occurred under anaerobic conditions”; the “reduction of native equine cytochrome c in the presence of formate (absorbance at 550 nm), in air” value is given as ~80% underwent reduction in air.
